# Results: patent US20050025779A1
# Tests used:
# Assay in all cases: cell-based or functional assay
# [1] = molecular target: HIV-1 JRCSF envelope glycoprotein, on pseudotyped virus (HIV-1)
# [2] = molecular target: amphotropic murine leukemia virus envelope protein, on pseudotyped virus (amphotropic murine leukemia virus)
# [3] = molecular target: HIV-1 NL4-3 envelope glycoprotein, on pseudotyped virus (HIV-1)
# [4] = molecular target: HIV-1 92HT594 envelope glycoprotein, on pseudotyped virus (HIV-1)
substance,measurement,setting,value
monoclonal antibody 2F5,"IC50 of virus infectivity (neutralization), U87 CD4/CCR5 cells",[1],2.1 µg/mL
same,"IC50 of virus infectivity (neutralization), U87 CD4/CCR5 cells",[2],> 50 µg/mL
same,"IC50 of virus infectivity (neutralization), U87 CD4/CXCR4 cells",[2],> 50 µg/mL
same,"IC50 of virus infectivity (neutralization), U87 CD4/CXCR4 cells",[3],0.477 µg/mL
same,"IC50 of virus infectivity (neutralization), U87 CD4/CCR5 cells",[4],0.857 µg/mL
same,"IC50 of virus infectivity (neutralization), U87 CD4/CXCR4 cells",[4],0.748 µg/mL
monoclonal antibody 2G12,"IC50 of virus infectivity (neutralization), U87 CD4/CCR5 cells",[1],0.764 µg/mL
same,"IC50 of virus infectivity (neutralization), U87 CD4/CCR5 cells",[2],> 50 µg/mL
same,"IC50 of virus infectivity (neutralization), U87 CD4/CXCR4 cells",[2],> 50 µg/mL
same,"IC50 of virus infectivity (neutralization), U87 CD4/CXCR4 cells",[3],0.473 µg/mL
same,"IC50 of virus infectivity (neutralization), U87 CD4/CCR5 cells",[4],1.94 µg/mL
same,"IC50 of virus infectivity (neutralization), U87 CD4/CXCR4 cells",[4],2.39 µg/mL
monoclonal antibody 4E10,"IC50 of virus infectivity (neutralization), U87 CD4/CCR5 cells",[1],7.91 µg/mL
same,"IC50 of virus infectivity (neutralization), U87 CD4/CCR5 cells",[2],> 50 µg/mL
same,"IC50 of virus infectivity (neutralization), U87 CD4/CXCR4 cells",[2],> 50 µg/mL
same,"IC50 of virus infectivity (neutralization), U87 CD4/CXCR4 cells",[3],1.42 µg/mL
same,"IC50 of virus infectivity (neutralization), U87 CD4/CCR5 cells",[4],2.94 µg/mL
same,"IC50 of virus infectivity (neutralization), U87 CD4/CXCR4 cells",[4],2.67 µg/mL
